Assay results as given in US20140056908.

Biological target: T1, malaria vaccine candidate protein Pfs48 with PR-1a signal peptide, 6xHis tag and KDEL
T1 chain: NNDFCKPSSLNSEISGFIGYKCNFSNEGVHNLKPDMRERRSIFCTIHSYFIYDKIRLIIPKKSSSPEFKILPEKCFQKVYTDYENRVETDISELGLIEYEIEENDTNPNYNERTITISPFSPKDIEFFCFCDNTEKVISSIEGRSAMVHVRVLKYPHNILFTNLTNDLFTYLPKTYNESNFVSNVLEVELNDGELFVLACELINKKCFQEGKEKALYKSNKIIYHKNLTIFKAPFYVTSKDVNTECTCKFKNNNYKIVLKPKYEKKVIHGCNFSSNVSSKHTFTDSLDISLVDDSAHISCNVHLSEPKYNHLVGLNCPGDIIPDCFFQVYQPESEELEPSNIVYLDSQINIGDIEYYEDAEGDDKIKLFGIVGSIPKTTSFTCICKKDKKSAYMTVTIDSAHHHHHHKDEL

B1: endoglycosidase F from Elizabethkingia meningoseptica (PNGaseF) with PR-1a signal peptide, FLAG tag and KDEL (protein)
chain: APADNTVNIKTFDKVKNAFGDGLSQSAEGTFTFPADVTTVKTIKMFIKNECPNKTCDEWDRYANVYVKNKTTGEWYEIGRFITPYWVGTEKLPRGLEIDVTDFKSLLSGNTELKIYTETCLAKGREYSVDFDIVYGTPDYKYSAVVPVIQYNKSSIDGVPYGKAHTLGLKKNIQLPTNTEKAYLRTTISGWGHAKPYDAGSRGCAEWCFRTHTIAINNANTFQHQLGALGCSANPINNQSPGNWAPDRAGWCPGMAVPTRIDVLNNSLTGSTFSYEYKFQSWTNNGTNGDAFYAISSFVIAKSNTPISAPVVTNDYKDDDDKDEL
Which “electrophoretic mobility of Pfs48 on Western blot (deglycosylation on co-expression in planta)” value does the source give for B1 here?
Its value is “the electrophoretic mobility of the glycosylated Pfs48 (control, which was expressed w/o PNGaseF) was different (less mobility) compared to the non-glycosylated form of Pfs48 that was co-expressed with PNGaseF”.
